Laboratory results: paper doi:10.1101/2021.05.31.445667

Test system: ZAP-S
Assay: MST

Substance: SARS-CoV-2 -1PRF pseudoknot RNA (WT)
- Kd: 121 nM
